± gives the standard deviation of the averaged measurements.
B1: library; a variant is named by its letters at N, in order (parent)
chain: GAGACCGCAACTGAAAAGTTGTGGNNNNNATAGTGAGTCGCTGCCTGCAAAGACACAACT

Variants of: B1
Assay: ligation selection enrichment (abundance after / before one-round selection) (fold); higher = more template-directed ligation activity
Details: with T7Psub CACGGAUGCUAAUACGACUCACUAUA; MgCl2 25 mM; 42 °C; 4 h; pH 8.5
Procedure, shortened: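 Two independent reactions combined a T7-transcribed RNA ligase library with five randomized core positions (0.75 μM) and RNA substrate (6 μM) in 50 mM EPPS pH 8.5, 25 mM MgCl2, run for 4 h at 42 °C. The ligated products were sequenced on a MiSeq, and only reads with quality ≥30 at all randomized positions were counted. Enrichment is the abundance after ligation divided by the abundance before ligation.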

Row | Variant | ligation selection enrichment
1 | CGTCC | 0.192 ± 0.059
2 | ACTAC | 0.128 ± 0.011
3 | AAGTG | 0.294 ± 0.021
4 | AAGTC | 0.146 ± 0.018
5 | ACCAT | 0.866 ± 0.31
6 | TGGTG | 0.288 ± 0.042
7 | TGGTT | 0.438 ± 0.044
8 | CTACT | 0.785 ± 0.19
9 | CTTCA | 0.45 ± 0.093
10 | CTTCT | 0.681 ± 0.22
11 | CTTCG | 1.47 ± 0.55
12 | CTTCC | 0.27 ± 0.03
13 | GGGTC | 0.201 ± 0.006
14 | GGGTT | 0.318 ± 0.011
15 | CCTTT | 0.455 ± 0.12
16 | CCTTA | 0.159 ± 0.004
17 | GCTCT | 0.165 ± 0.064
18 | GCTCA | 0.244 ± 0.1
19 | GCTCG | 0.533 ± 0.037
20 | CAAGC | 0.137 ± 0.042
21 | ATTCT | 0.471 ± 0.21
22 | GCGCG | 0.558 ± 0.0074
23 | AACGC | 0.197 ± 0.017
24 | AACGT | 0.167 ± 0.013

Row | Variant | ligation selection enrichment
25 | AACGA | 0.673 ± 0.067
26 | GGGAG | 1.05 ± 0.051
27 | GGGAA | 6.049 ± 0.019
28 | GGGAT | 167 ± 32
29 | GGGAC | 30.7 ± 5.3
30 | TCTTC | 0.0955 ± 0.034
31 | CTTGT | 0.413 ± 0.078
32 | CTTGA | 2.2 ± 0.37
33 | CTTGC | 0.446 ± 0.26
34 | GATGC | 0.247 ± 0.024
35 | TTCCA | 0.142 ± 0.0024
36 | CATCC | 0.247 ± 0.012
37 | GGTAA | 0.348 ± 0.1
38 | GGTAG | 1.05 ± 0.028
39 | ACATG | 0.333 ± 0.015
40 | ACATT | 0.209 ± 0.099
41 | ACATA | 0.136 ± 0.019
42 | CCTGA | 0.26 ± 0.038
43 | TTGTT | 0.311 ± 0.15
44 | TTGTC | 0.271 ± 0.021
45 | TGTGT | 0.102 ± 0.061
46 | TGTGA | 0.629 ± 0.018
47 | CACGG | 0.242 ± 0.057
48 | GTGGG | 0.31 ± 0.013

Row | Variant | ligation selection enrichment
49 | GTGGA | 1.76 ± 0.068
50 | GTGGT | 0.274 ± 0.0063
51 | CCAAT | 3.42 ± 0.96
52 | AACTG | 0.506 ± 0.068
53 | CGTTT | 0.379 ± 0.0055
54 | GACTC | 0.111 ± 0.037
55 | GACTT | 0.157 ± 0.075
56 | ACGAA | 0.734 ± 0.16
57 | ACGAG | 0.745 ± 0.13
58 | ATGCT | 0.505 ± 0.074
59 | ATGCC | 0.176 ± 0.0063
60 | CGCAC | 0.339 ± 0.028
61 | CGCAT | 3.7 ± 0.39
62 | TTATG | 0.377 ± 0.02
63 | TTATT | 0.206 ± 0.071
64 | GAGAA | 0.508 ± 0.036
65 | CCATT | 0.223 ± 0.041
66 | CCATG | 0.166 ± 0.043
67 | GCAGG | 0.189 ± 0.024
68 | TCCGG | 0.133 ± 0.0031
69 | GCCTG | 0.624 ± 0.06
70 | TACGA | 1.32 ± 0.13
71 | TACGC | 0.1908 ± 0.0012
72 | TGCTC | 0.117 ± 0.022

Row | Variant | ligation selection enrichment
73 | TGCTT | 0.0805 ± 0.021
74 | TGTAA | 0.267 ± 0.021
75 | TGTAC | 0.277 ± 0.037
76 | TCCAT | 0.303 ± 0.096
77 | AGGGT | 0.289 ± 0.097
78 | TGAGA | 0.376 ± 0.039
79 | TGAGG | 0.319 ± 0.074
80 | CTATG | 0.36 ± 0.029
81 | CTATA | 0.148 ± 0.068
82 | TACTA | 0.168 ± 0.08
83 | TACTG | 0.641 ± 0.095
84 | GAATT | 0.249 ± 0.099
85 | CCCAA | 0.134 ± 0.007
86 | CCCAT | 0.674 ± 0.13
87 | CTCAC | 0.0889 ± 0.01
88 | CTCAA | 0.116 ± 0.038
89 | GTAGA | 1.05 ± 0.13
90 | GTAGC | 0.191 ± 0.035
91 | GGCAA | 0.423 ± 0.11
92 | CGGAT | 57.6 ± 1.5
93 | TGCCC | 0.1927 ± 0.0019
94 | GACCA | 0.239 ± 0.067
95 | GACCT | 0.584 ± 0.26
96 | TATGA | 2.32 ± 0.16

Row | Variant | ligation selection enrichment
97 | TATGG | 0.616 ± 0.093
98 | CTCGT | 0.216 ± 0.13
99 | GTATC | 0.167 ± 0.036
100 | GTATT | 0.236 ± 0.12
101 | TAGGC | 0.218 ± 0.0035
102 | CACAT | 1.16 ± 0.21
103 | CACAA | 0.132 ± 0.055
104 | GCCCC | 0.227 ± 0.022
105 | GCCCA | 0.209 ± 0.023
106 | TTCGA | 2.1 ± 0.11
107 | CCGAT | 15.8 ± 4.6
108 | CTCCA | 0.1489 ± 0.00039
109 | TTGAC | 3.32 ± 0.24
110 | TTGAG | 0.82 ± 0.12
111 | TTGAT | 29.9 ± 7.4
112 | CGACA | 0.411 ± 0.093
113 | AAGCC | 0.188 ± 0.021
114 | AGGAG | 0.806 ± 0.1
115 | TCTCG | 0.368 ± 0.12
116 | TCTCC | 0.267 ± 0.12
117 | CGGTA | 0.133 ± 0.028
118 | CGGTG | 0.24 ± 0.069
119 | TAATC | 0.111 ± 0.048
120 | TAATT | 0.211 ± 0.098

Row | Variant | ligation selection enrichment
121 | TAATG | 1.16 ± 0.27
122 | CATTT | 0.539 ± 0.13
123 | CATTC | 0.152 ± 0.013
124 | CATTG | 1.24 ± 0.22
125 | CATTA | 0.16 ± 0.038
126 | AGCAA | 0.342 ± 0.056
127 | AGCAT | 3.55 ± 0.68
128 | CTTAC | 0.153 ± 0.015
129 | CTTAT | 0.512 ± 0.016
130 | AGCCG | 0.709 ± 0.025
131 | TCAGT | 0.161 ± 0.087
132 | TCAGG | 0.337 ± 0.062
133 | TCAGC | 0.153 ± 0.017
134 | ACTTT | 0.465 ± 0.065
135 | TCCTT | 0.232 ± 0.029
136 | GTTTG | 2.05 ± 0.47
137 | CTGAG | 0.724 ± 0.054
138 | CTGAT | 22 ± 5.4
139 | TCAAT | 6.44 ± 2.6
140 | TAGCT | 0.547 ± 0.17
141 | GTGTT | 0.277 ± 0.011
142 | TCGCA | 0.269 ± 0.054
143 | TCGCT | 0.299 ± 0.075
144 | GGGCG | 0.626 ± 0.07

Row | Variant | ligation selection enrichment
145 | GGGCA | 0.298 ± 0.033
146 | CAGTC | 0.125 ± 0.019
147 | CAGTA | 0.14 ± 0.0029
148 | CAGTG | 0.185 ± 0.004
149 | CAGTT | 0.238 ± 0.0081
150 | TAACA | 0.186 ± 0.043
151 | TAACT | 0.925 ± 0.31
152 | CCTCT | 0.266 ± 0.11
153 | CCTCA | 0.348 ± 0.055
154 | GTGCA | 0.307 ± 0.043
155 | TGGCG | 0.345 ± 0.019
156 | GGTGG | 0.374 ± 0.12
157 | TCATC | 0.166 ± 0.002
158 | TCATA | 0.274 ± 0.026
159 | TTAAA | 0.329 ± 0.06
160 | TAGTG | 0.6007 ± 0.0042
161 | TAGTA | 0.19 ± 0.055
162 | ATCCT | 0.468 ± 0.17
163 | ATCCA | 0.148 ± 0.027
164 | ATCCC | 0.168 ± 0.049
165 | ATCCG | 0.765 ± 0.036
166 | CACCG | 0.217 ± 0.047
167 | TTCAA | 0.427 ± 0.13

Reference: the supplement of paper PMC10219994
